The assay concerns the target endogenous Miro1 of COS7 cells (monkey (endogenous in COS7)). Description: co-IP; COS7 cells co-transfected with FLAG-TRAK1 plus Myc-DISC1 or Myc-DISC1-37W, or empty vectors; IP with Miro1 antibody (endogenous Miro1); for quantification IP buffer with 0.1% SDS.

Chain of endogenous Miro1 of COS7 cells (monkey (endogenous in COS7)) (Q8IXI2 whole entry): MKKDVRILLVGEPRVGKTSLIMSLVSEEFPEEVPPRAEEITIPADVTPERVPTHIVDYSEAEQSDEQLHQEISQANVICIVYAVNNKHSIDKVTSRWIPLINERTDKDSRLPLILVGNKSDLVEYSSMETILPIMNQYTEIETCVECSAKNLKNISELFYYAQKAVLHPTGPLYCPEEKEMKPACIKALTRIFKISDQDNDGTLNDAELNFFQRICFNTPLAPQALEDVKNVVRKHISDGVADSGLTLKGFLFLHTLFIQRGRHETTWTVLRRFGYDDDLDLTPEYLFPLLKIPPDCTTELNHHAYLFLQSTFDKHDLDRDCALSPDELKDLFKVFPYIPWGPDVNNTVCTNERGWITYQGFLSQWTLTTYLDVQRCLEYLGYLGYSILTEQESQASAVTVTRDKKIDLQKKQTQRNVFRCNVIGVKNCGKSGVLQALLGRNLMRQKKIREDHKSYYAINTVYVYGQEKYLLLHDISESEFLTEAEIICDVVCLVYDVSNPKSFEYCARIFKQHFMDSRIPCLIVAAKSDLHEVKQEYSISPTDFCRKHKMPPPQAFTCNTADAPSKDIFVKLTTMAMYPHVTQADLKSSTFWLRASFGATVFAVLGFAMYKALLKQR

B1: FLAG-tagged TRAK1 (trafficking-protein-Kinesin-binding-1), aa 2-953, in COS7 (natural protein)
chain: ALVFQFGQPVRAQPLPGLCHGKLIRTNACDVCNSTDLPEVEIISLLEEQLPHYKLRADTIYGYDHDDWLHTPLISPDANIDLTTEQIEETLKYFLLCAERVGQMTKTYNDIDAVTRLLEEKERDLELAARIGQSLLKKNKTLTERNELLEEQVEHIREEVSQLRHELSMKDELLQFYTSAAEESEPESVCSTPLKRNESSSSVQNYFHLDSLQKKLKDLEEENVVLRSEASQLKTETITYEEKEQQLVNDCVKELRDANVQIASISEELAKKTEDAARQQEEITHLLSQIVDLQKKAKACAVENEELVQHLGAAKDAQRQLTAELRELEDKYAECMEMLHEAQEELKNLRNKTMPNTTSRRYHSLGLFPMDSLAAEIEGTMRKELQLEEAESPDITHQKRVFETVRNINQVVKQRSLTPSPMNIPGSNQSSAMNSLLSSCVSTPRSSFYGSDIGNVVLDNKTNSIILETEAADLGNDERSKKPGTPGTPGSHDLETALRRLSLRRENYLSERRFFEEEQERKLQELAEKGELRSGSLTPTESIMSLGTHSRFSEFTGFSGMSFSSRSYLPEKLQIVKPLEGSATLHHWQQLAQPHLGGILDPRPGVVTKGFRTLDVDLDEVYCLNDFEEDDTGDHISLPRLATSTPVQHPETSAHHPGKCMSQTNSTFTFTTCRILHPSDELTRVTPSLNSAPTPACGSTSHLKSTPVATPCTPRRLSLAESFTNTRESTTTMSTSLGLVWLLKERGISAAVYDPQSWDRAGRGSLLHSYTPKMAVIPSTPPNSPMQTPTSSPPSFEFKCTSPPYDNFLASKPASSILREVREKNVRSSESQTDVSVSNLNLVDKVRRFGVAKVVNSGRAHVPTLTEEQGPLLCGPPGPAPALVPRGLVPEGLPLRCPTVTSAIGGLQLNSGIRRNRSFPTMVGSSMQMKAPVTLTSGILMGAKLSKQTSLR
With B1, the decrease of co-IP in cells expressing Myc-DISC1-37W against cells expressing Myc-DISC1 stood at 20%.

The record behind these values is PMC3900104.
